From patent US20240132578A1
“And” between values parts separate entries of the source, which are not always exact repeats. Equal values may be shown once.

Legend:
Experiment in all cases: cell-based or functional assay
[1] = target: HIV-1 Env of pseudovirus JRCSF (HIV-1) (UniProt P20871)
[2] = target: HIV-1 Env of pseudovirus 92BR020 (HIV-1)
[3] = target: HIV-1 Env of pseudovirus MGRM-C-26 (HIV-1)
[4] = target: HIV-1 Env of pseudovirus 94UG103 (HIV-1)
[5] = target: HIV-1 Env of pseudovirus 93IN905 (HIV-1)
[6] = target: HIV-1 Env of isolate MGRM-G-015 (subtype G), on pseudovirus (HIV-1)
[7] = target: HIV-1 Env of isolate 93MW959 (subtype C) (HIV-1)
[8] = target: HIV-1 Env of isolate MGRM-C-010 (subtype C) (HIV-1)
[9] = target: HIV-1 Env of isolate MGRM-G-025 (subtype G), on pseudovirus (HIV-1)
[10] = target: HIV-1 Env of isolate MGRM-G-019 (subtype G), on pseudovirus (HIV-1)
[11] = target: HIV-1 Env of isolate MGRM-G-004 (subtype G), on pseudovirus (HIV-1)
[12] = target: HIV-1 Env of isolate MGRM-C-022 (subtype C) (HIV-1)
[13] = target: HIV-1 Env of isolate MGRM-C-014 (subtype C) (HIV-1)
[14] = target: HIV-1 Env of isolate MGRM-G-009 (subtype G), on pseudovirus (HIV-1)
[15] = target: HIV-1 Env of isolate MGRM-G-024 (subtype G), on pseudovirus (HIV-1)
[16] = target: HIV-1 Env of isolate MGRM-C-023 (subtype C) (HIV-1)
[17] = target: HIV-1 Env of isolate MGRM-C-015 (subtype C) (HIV-1)
[18] = target: HIV-1 Env of isolate MGRM-G-001 (subtype G), on pseudovirus (HIV-1)
[19] = target: HIV-1 Env of isolate MGRM-G-027 (subtype G), on pseudovirus (HIV-1)
[20] = target: HIV-1 Env of isolate MGRM-G-017 (subtype G), on pseudovirus (HIV-1)
[21] = target: HIV-1 Env of isolate MGRM-G-014 (subtype G), on pseudovirus (HIV-1)
[22] = target: HIV-1 Env of isolate MGRM-C-002 (subtype C) (HIV-1)
[23] = target: HIV-1 Env of isolate MGRM-C-008 (subtype C) (HIV-1)
[24] = target: HIV-1 Env of isolate MGRM-C-025 (subtype C) (HIV-1)
[25] = target: HIV-1 Env of isolate MGRM-G-028 (subtype G), on pseudovirus (HIV-1)
[26] = target: HIV-1 Env of isolate MGRM-C-001 (subtype C) (HIV-1)
[27] = target: HIV-1 Env of isolate MGRM-C-013 (subtype C) (HIV-1)
[28] = target: HIV-1 Env of isolate MGRM-C-028 (subtype C) (HIV-1)
[29] = target: HIV-1 Env of isolate MGRM-C-004 (subtype C) (HIV-1)
[30] = target: HIV-1 Env of isolate MGRM-C-007 (subtype C) (HIV-1)
[31] = target: HIV-1 Env of isolate MGRM-C-012 (subtype C) (HIV-1)
[32] = target: HIV-1 Env of isolate MGRM-G-006 (subtype G), on pseudovirus (HIV-1)
[33] = target: HIV-1 Env of isolate MGRM-C-006 (subtype C) (HIV-1)
[34] = target: HIV-1 Env of isolate 98IN022 (subtype C) (HIV-1)
[35] = target: HIV-1 Env of isolate MGRM-C-026 (subtype C) (HIV-1)
[36] = target: HIV-1 Env of isolate MGRM-G-011 (subtype G), on pseudovirus (HIV-1)
[37] = target: HIV-1 Env of isolate MGRM-C-024 (subtype C) (HIV-1)
[38] = target: aMLV envelope, on pseudovirus (negative control)
[39] = target: HIV-1 Env of isolate MGRM-G-013 (subtype G), on pseudovirus (HIV-1)
[40] = target: HIV-1 Env of isolate 97ZA012 (subtype C) (HIV-1)
[41] = target: HIV-1 Env of isolate MGRM-C-020 (subtype C) (HIV-1)
[42] = target: HIV-1 Env of isolate MGRM-C-019 (subtype C) (HIV-1)
[43] = target: HIV-1 Env of isolate MGRM-C-027 (subtype C) (HIV-1)
[44] = target: HIV-1 Env of isolate MGRM-C-005 (subtype C) (HIV-1)
[45] = target: HIV-1 Env of isolate MGRM-C-009 (subtype C) (HIV-1)
[46] = target: HIV-1 Env of isolate MGRM-G-016 (subtype G), on pseudovirus (HIV-1)
[47] = target: HIV-1 Env of isolate MGRM-C-017 (subtype C) (HIV-1)

B1: PGT-123 (B cell culture well 4858_P8) (antibody, V domains shown)
VH: QLHLQESGPGLVKPPETLSLTCSVSGASINDAYWSWIRQSPGKRPEWVGYVHHSGDTNYNPSLKRRVTFSLDTAKNEVSLKLVDLTAADSATYFCARALHGKRIYGIVALGELFTYFYMDVWGKGTAVTVSS
VL: SSMSVSPGETAKISCGKESIGSRAVQWYQQKPGQPPSLIIYNNQDRPAGVPERFSASPDFRPGTTATLTITNVDAEDEADYYCHIYDARGGTNWVFDRGTTLTVL
For B1, the Primary Neutralization Index (B cell culture supernatant) [1] was 1.6, the Primary Neutralization Index (B cell culture supernatant) [2] was 2.8 and the Primary Neutralization Index (B cell culture supernatant) [3] was 33.8. It also gave a Primary Neutralization Index (B cell culture supernatant) [4] of 1.1.

B2: PGT-137 (B cell culture well 5345_I1) (antibody, V domains shown)
VH: EVHLEESGPGLVRPSETLSLTCTASGGSIRGGEWGDSDYHWGWVRHSPEKGLEWIGSIHWRGTTHYNAPFRGRGRLSIDLSRNQFSLRLTSVTAEDTAVYYCVKHKYHDIVMVVPIAGWFDPWGQGLQVTVSS
VL: EIMMTQSPAILSVSPGDRATLSCRASQSVKNNLAWYQKRPGQAPRLLIFDTSSRASGIPARFSGGGSGTEFTLTVNSMQSEDFATYYCQQYEEWPRTFGQGTKVEIK
Work on B2 yielded a Primary Neutralization Index (B cell culture supernatant) [1] of 1.1, a Primary Neutralization Index (B cell culture supernatant) [3] of 11.3 and a Primary Neutralization Index (B cell culture supernatant) [5] of 3.3.

B3: PGT-136 (B cell culture wells 5366_P21 and 5329_C19) (antibody, V domains shown)
VH: QLQLQESGPGLVKPSETLSLTCTVSGGSMRGTDWGENDFHYGWIRQSSAKGLEWIGSIHWRGRTTHYKTSFRSRATLSIDTSNNRFSLTFSFVTAADTAVYYCARHKYHDIFRVVPVAGWFDPWGQGLLVTVSS
VL: EIVMTQSPPTLSVSPGETATLSCRASQNVKNNLAWYQLKPGQAPRLLIFDASSRAGGIPDRFSGSGYGTDFTLTVNSVQSEDFGDYFCQQYEEWPRTFGQGTKVDIK
B3 was tested, and the Primary Neutralization Index (B cell culture supernatant) [1] was 1.1 and 0.9, the Primary Neutralization Index (B cell culture supernatant) [3] was 6.2 and 6 and the Primary Neutralization Index (B cell culture supernatant) [5] was 5.5 and 5.6.

B4: Antibody of B cell culture well 4869_K15 (antibody, V domains shown)
VH: QVHLQESGPGLVTPSETLSLTCTVSNGSVSGRFWSWIRQSPGRGLEWIGYFSDTDRSEYNPSLRSRLTLSVDRSKNQLSLRLKSVTAADSATYYCARAQQGKRIYGIVSFGEFFYYYYMDAWGKGTPVTVSS
VL: SLNPLSLAPGATAKIPCGERSRGSRAVQWYQQKPGQAPTLIIYNNQDRPAGVSERFSGNPDVAIGVTATLTISRVEVGDEADYYCHYWDSRSPISWIFGGGTQLTVL
For B4, the Primary Neutralization Index (B cell culture supernatant) [1] was 2.1, the Primary Neutralization Index (B cell culture supernatant) [2] was 3.9 and the Primary Neutralization Index (B cell culture supernatant) [3] was 104. For the same binder, the Primary Neutralization Index (B cell culture supernatant) [4] was 1.5.

B5: PGT-127 (antibody, V domains shown)
VH: QPQLQESGPGLVEASETLSLTCTVSGDSTGRCNYFWGWVRQPPGKGLEWIGSLSHCRSYYNTDWTYHNPSLKSRLTISLDTPKNQVFLRLTSVTAADTATYYCARFGGEVLVYRDWPKPAWVDLWGRGTLVVTVS
VL: QSALTQPPSASGSPGQSITISCTGTSNNFVSWYQQYPGKAPKLVIYEVNKRPSGVPDRFSGSKSGSTASLTVSGLQADDEGVYYCSSLVGNWDVIFGGGTKLTVL
With B5 the IC50 (µg/mL), neutralization of pseudovirus [6] was over 50 µg/mL, the IC50 (µg/mL), pseudovirus neutralization [7] was 6.95 µg/mL and the IC50 (µg/mL), pseudovirus neutralization [8] was over 50 µg/mL. It also gave an IC50 (µg/mL), neutralization of pseudovirus [9] of 19.3 µg/mL, an IC50 (µg/mL), neutralization of pseudovirus [10] of 0.429 µg/mL and an IC50 (µg/mL), neutralization of pseudovirus [11] of over 50 µg/mL. It also gave an IC50 (µg/mL), pseudovirus neutralization [12] of 0.41 µg/mL, an IC50 (µg/mL), pseudovirus neutralization [13] of over 50 µg/mL and an IC50 (µg/mL), neutralization of pseudovirus [14] of over 50 µg/mL. For the same binder, the IC50 (µg/mL), neutralization of pseudovirus [15] was over 50 µg/mL, the IC50 (µg/mL), pseudovirus neutralization [16] was 1.08 µg/mL and the IC50 (µg/mL), pseudovirus neutralization [17] was over 50 µg/mL. The IC50 (µg/mL), neutralization of pseudovirus [18] was 0.113 µg/mL, the IC50 (µg/mL), neutralization of pseudovirus [19] was over 50 µg/mL and the IC50 (µg/mL), neutralization of pseudovirus [20] was over 50 µg/mL. For the same binder, the IC50 (µg/mL), neutralization of pseudovirus [21] was 0.009 µg/mL, the IC50 (µg/mL), pseudovirus neutralization [22] was 0.057 µg/mL and the IC50 (µg/mL), pseudovirus neutralization [23] was over 50 µg/mL. It also gave an IC50 (µg/mL), pseudovirus neutralization [24] of over 50 µg/mL, an IC50 (µg/mL), neutralization of pseudovirus [25] of 0.032 µg/mL and an IC50 (µg/mL), pseudovirus neutralization [26] of over 50 µg/mL. It also gave an IC50 (µg/mL), pseudovirus neutralization [27] of over 50 µg/mL, an IC50 (µg/mL), pseudovirus neutralization [28] of 7.57 µg/mL and an IC50 (µg/mL), pseudovirus neutralization [29] of 0.532 µg/mL. It also gave an IC50 (µg/mL), pseudovirus neutralization [30] of over 50 µg/mL, an IC50 (µg/mL), pseudovirus neutralization [31] of 1.07 µg/mL and an IC50 (µg/mL), neutralization of pseudovirus [32] of over 50 µg/mL. The IC50 (µg/mL), pseudovirus neutralization [33] was 0.319 µg/mL, the IC50 (µg/mL), pseudovirus neutralization [34] was 19.2 µg/mL and the IC50 (µg/mL), pseudovirus neutralization [35] was 0.014 µg/mL. It also gave an IC50 (µg/mL), neutralization of pseudovirus [36] of over 50 µg/mL, an IC50 (µg/mL), pseudovirus neutralization [37] of over 50 µg/mL and an IC50 (µg/mL), neutralization of pseudovirus [38] of over 50 µg/mL. For the same binder, the IC50 (µg/mL), neutralization of pseudovirus [39] was 7.7 µg/mL, the IC50 (µg/mL), pseudovirus neutralization [40] was over 50 µg/mL and the IC50 (µg/mL), pseudovirus neutralization [41] was over 50 µg/mL. The IC50 (µg/mL), pseudovirus neutralization [42] was 0.017 µg/mL, the IC50 (µg/mL), pseudovirus neutralization [43] was over 50 µg/mL and the IC50 (µg/mL), pseudovirus neutralization [44] was 0.57 µg/mL. The IC50 (µg/mL), pseudovirus neutralization [45] was over 50 µg/mL, the IC50 (µg/mL), neutralization of pseudovirus [46] was over 50 µg/mL and the IC50 (µg/mL), pseudovirus neutralization [47] was 3.4 µg/mL.
